In IntAct's records for PubMed 21804599:

B1: "Na(+)/H(+) exchange regulatory cofactor NHE-RF1" (Homo sapiens), O14745 (parent)
chain: MSADAAAGAPLPRLCCLEKGPNGYGFHLHGEKGKLGQYIRLVEPGSPAEKAGLLAGDRLVEVNGENVEKETHQQVVSRIRAALNAVRLLVVDPETDEQLQKLGVQVREELLRAQEAPGQAEPPAAAEVQGAGNENEPREADKSHPEQRELRPRLCTMKKGPSGYGFNLHSDKSKPGQFIRSVDPDSPAEASGLRAQDRIVEVNGVCMEGKQHGDVVSAIRAGGDETKLLVVDRETDEFFKKCRVIPSQEHLNGPLPVPFTNGEIQKENSREALAEAALESPRPALVRSASSDTSEELNSQDSPPKQDSTAPSSTSSSDPILDFNISLAMAKERAHQKRSSKRAPQMDWSKKNELFSNL
partner: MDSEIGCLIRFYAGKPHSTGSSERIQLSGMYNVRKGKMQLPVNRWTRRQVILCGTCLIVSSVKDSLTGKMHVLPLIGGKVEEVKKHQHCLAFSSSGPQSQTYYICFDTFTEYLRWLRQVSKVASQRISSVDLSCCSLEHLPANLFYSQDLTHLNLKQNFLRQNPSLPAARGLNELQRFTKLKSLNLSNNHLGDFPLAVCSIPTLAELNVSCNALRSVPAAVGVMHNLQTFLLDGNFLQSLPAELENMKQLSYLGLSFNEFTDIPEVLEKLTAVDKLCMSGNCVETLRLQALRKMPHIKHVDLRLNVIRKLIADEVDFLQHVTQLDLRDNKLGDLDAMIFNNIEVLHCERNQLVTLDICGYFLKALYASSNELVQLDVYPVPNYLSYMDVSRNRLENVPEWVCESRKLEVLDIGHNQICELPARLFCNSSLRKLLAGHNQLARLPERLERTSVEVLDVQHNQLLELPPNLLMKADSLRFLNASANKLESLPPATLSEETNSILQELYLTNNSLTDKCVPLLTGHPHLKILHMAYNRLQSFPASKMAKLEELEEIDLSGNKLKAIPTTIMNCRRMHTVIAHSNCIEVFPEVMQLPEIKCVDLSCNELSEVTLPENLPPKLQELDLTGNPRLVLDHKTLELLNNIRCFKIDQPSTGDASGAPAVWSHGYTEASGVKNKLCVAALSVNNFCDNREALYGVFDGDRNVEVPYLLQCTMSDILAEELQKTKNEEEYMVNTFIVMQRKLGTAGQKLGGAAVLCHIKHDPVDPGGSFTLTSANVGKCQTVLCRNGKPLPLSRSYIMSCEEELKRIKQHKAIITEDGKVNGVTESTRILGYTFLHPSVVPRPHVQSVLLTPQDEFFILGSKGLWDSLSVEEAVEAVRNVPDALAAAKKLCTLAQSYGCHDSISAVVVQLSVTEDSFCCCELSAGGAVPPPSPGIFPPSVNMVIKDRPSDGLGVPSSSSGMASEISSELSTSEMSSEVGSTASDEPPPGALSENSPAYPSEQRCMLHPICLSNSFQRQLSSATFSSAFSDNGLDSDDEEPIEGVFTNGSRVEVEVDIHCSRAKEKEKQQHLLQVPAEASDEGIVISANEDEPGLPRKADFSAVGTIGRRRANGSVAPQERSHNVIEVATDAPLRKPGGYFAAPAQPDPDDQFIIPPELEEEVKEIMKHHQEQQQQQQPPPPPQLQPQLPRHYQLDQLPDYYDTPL
B2: "Na(+)/H(+) exchange regulatory cofactor NHE-RF1" (Homo sapiens), O14745 (parent)
chain: B1 chain
partner: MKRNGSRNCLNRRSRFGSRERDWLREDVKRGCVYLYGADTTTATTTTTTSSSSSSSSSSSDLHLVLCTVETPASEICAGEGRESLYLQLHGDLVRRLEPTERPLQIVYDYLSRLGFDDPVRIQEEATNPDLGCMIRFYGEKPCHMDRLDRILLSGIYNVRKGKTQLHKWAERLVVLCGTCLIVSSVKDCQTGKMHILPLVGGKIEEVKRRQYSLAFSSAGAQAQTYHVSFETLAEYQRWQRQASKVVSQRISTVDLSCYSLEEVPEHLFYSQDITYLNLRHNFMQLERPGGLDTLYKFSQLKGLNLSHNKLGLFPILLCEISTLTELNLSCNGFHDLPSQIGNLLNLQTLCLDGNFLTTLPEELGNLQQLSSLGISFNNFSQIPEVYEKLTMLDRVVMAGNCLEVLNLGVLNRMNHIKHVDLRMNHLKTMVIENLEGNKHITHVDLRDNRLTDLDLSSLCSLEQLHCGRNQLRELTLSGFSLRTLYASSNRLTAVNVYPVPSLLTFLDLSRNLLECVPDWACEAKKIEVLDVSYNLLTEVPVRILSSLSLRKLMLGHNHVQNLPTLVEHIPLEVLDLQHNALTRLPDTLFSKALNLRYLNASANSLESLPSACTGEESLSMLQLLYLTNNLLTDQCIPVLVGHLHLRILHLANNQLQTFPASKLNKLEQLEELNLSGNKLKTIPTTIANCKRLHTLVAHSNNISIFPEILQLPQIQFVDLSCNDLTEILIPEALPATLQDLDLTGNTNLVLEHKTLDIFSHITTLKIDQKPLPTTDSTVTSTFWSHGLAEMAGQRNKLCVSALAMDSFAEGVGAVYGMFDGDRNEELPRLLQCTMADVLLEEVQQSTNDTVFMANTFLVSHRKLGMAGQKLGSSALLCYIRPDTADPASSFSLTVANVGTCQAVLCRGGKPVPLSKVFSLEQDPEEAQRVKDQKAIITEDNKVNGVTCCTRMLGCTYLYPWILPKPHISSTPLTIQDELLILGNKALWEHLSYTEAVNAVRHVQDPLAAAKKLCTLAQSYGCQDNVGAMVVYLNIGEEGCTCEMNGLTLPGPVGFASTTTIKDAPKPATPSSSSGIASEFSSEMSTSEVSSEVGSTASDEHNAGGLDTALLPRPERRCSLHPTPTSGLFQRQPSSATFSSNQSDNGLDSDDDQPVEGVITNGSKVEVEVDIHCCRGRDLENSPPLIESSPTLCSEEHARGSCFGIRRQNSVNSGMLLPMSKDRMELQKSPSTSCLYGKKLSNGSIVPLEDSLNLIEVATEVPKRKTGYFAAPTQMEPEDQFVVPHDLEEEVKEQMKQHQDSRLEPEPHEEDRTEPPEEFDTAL

Variants of: B1
Conditions: with PHLPP1, O60346-2

Question: With MSADAAAGAPLPRLCCLEKGPNGYGFHLHGEKGKLGRYIRLVEPGSPAEKAGLLAGDRLVEVNGENVEKETHQQVVSRIRAALNAVRLLVVDPETDEQLQKLGVQVREELLRAQEAPGQAEPPAAAEVQGAGNENEPREADKSHPEQRELRPRLCTMKKGPSGYGFNLHSDKSKPGQFIRSVDPDSPAEASGLRAQDRIVEVNGVCMEGKQHGDVVSAIRAGGDETKLLVVDRETDEFFKKCRVIPSQEHLNGPLPVPFTNGEIQKENSREALAEAALESPRPALVRSASSDTSEELNSQDSPPKQDSTAPSSTSSSDPILDFNISLAMAKERAHQKRSSKRAPQMDWSKKNELFSNL [Q37R] as the variant, how does the “effect of a mutation on the interaction” value read?
Answer: disrupting interaction

Variants of: B2
Conditions: with phlp2_human PHLPP2, Q6ZVD8

Question: How did the “effect of a mutation on the interaction” value turn out when MSADAAAGAPLPRLCCLEKGPNGYGFHLHGEKGKLGRYIRLVEPGSPAEKAGLLAGDRLVEVNGENVEKETHQQVVSRIRAALNAVRLLVVDPETDEQLQKLGVQVREELLRAQEAPGQAEPPAAAEVQGAGNENEPREADKSHPEQRELRPRLCTMKKGPSGYGFNLHSDKSKPGQFIRSVDPDSPAEASGLRAQDRIVEVNGVCMEGKQHGDVVSAIRAGGDETKLLVVDRETDEFFKKCRVIPSQEHLNGPLPVPFTNGEIQKENSREALAEAALESPRPALVRSASSDTSEELNSQDSPPKQDSTAPSSTSSSDPILDFNISLAMAKERAHQKRSSKRAPQMDWSKKNELFSNL [Q37R] was run?
Answer: disrupting interaction
